Each block holds one binder with its values, some of them ahead of it.
Assays:
[1] = biological target: T1, rHuman CD44/Fc Chimera, CF (R&D Systems Cat#3660-CD) (human, UniProt P16070 21-220); experiment: MSD Multispot ECL, antigen spotted on plate, Fab in solution; blank spot of the row 337
T1 construct: Bought recombinant Fc chimera; Fc part of the bought chimera not given

[2] = biological target: T2, rHuman EGF R/Fc Chimera, CF (R&D Systems Cat#344-ER) (human, UniProt P00533 25-645); experiment: as above
T2 construct: Bought recombinant Fc chimera; also called epidermal growth factor receptor; Fc part of the bought chimera not given

[3] = biological target: T3, Recombinant Human DLL4 (R&D Systems Cat#1506-D4/CF) (human, UniProt Q9NR61 27-524); experiment: as above
T3 construct: Bought recombinant protein; also called delta-like protein 4; Delta-like 4

[4] = biological target: T4, rHuman Erythropoietin R/Fc Chimera, CF (R&D Systems Cat#963-ER) (human, UniProt P19235 25-250); experiment: as above
T4 construct: Bought recombinant Fc chimera; also called EPO R; EPO R/Fc; Fc part of the bought chimera not given
T4 sequence (looked up): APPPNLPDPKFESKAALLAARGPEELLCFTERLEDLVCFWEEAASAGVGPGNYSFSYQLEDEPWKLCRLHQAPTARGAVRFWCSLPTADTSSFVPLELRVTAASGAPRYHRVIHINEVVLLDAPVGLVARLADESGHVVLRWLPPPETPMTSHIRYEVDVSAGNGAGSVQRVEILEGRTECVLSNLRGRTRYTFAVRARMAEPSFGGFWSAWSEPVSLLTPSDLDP

[5] = biological target: T5, rHuman Notch-1/Fc Chimera, CF (R&D Systems Cat#3647-TK) (human, UniProt P46531 19-526); experiment: as above
T5 construct: Bought recombinant Fc chimera; Fc part of the bought chimera not given

[6] = biological target: T6, rHuman P-Cadherin/Fc Chimera, CF (R&D Systems Cat#861-PC) (human, UniProt P22223 108-654); experiment: as above
T6 construct: Bought recombinant Fc chimera; Fc part of the bought chimera not given

[7] = biological target: T7, rHuman HGF R/c-MET/Fc Chimera, CF (R&D Systems Cat#358-MT/CF) (human, UniProt P08581 25-932); experiment: as above
T7 construct: Bought recombinant Fc chimera; also called HGF R/Fc; hepatocyte growth factor receptor; Fc part of the bought chimera not given
T7 sequence (P08581 25-932, change not shown): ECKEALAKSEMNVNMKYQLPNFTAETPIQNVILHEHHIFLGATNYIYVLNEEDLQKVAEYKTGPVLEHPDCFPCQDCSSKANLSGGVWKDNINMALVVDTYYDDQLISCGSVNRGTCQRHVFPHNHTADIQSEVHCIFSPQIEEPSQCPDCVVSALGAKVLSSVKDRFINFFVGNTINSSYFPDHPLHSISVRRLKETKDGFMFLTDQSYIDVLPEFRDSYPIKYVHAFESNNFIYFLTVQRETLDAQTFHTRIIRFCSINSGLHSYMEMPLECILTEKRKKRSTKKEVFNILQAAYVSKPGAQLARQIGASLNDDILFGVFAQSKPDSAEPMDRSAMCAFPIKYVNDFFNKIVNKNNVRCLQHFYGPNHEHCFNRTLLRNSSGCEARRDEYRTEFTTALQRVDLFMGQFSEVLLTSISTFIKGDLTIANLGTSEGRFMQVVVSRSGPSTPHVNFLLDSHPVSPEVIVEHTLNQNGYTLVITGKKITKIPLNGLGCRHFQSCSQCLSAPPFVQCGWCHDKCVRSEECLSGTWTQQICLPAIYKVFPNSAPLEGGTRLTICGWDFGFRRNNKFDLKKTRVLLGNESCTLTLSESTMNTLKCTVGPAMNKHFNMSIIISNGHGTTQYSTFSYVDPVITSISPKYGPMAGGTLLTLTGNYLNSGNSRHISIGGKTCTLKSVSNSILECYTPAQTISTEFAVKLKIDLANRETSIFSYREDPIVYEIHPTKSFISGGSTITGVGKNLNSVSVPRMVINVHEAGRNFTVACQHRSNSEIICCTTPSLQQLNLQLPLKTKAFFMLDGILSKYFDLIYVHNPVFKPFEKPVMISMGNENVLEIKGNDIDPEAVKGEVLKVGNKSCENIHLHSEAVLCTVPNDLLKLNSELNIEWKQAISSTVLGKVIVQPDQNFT

[8] = biological target: T1, rHuman CD44/Fc Chimera, CF (R&D Systems …); experiment: MSD Multispot ECL, antigen spotted on plate, Fab in solution; blank spot of the row 351
[9] = biological target: T2, rHuman EGF R/Fc Chimera, CF (R&D …); experiment: as above
[10] = biological target: T3, Recombinant Human DLL4 (R&D Systems …); experiment: as above
[11] = biological target: T4, rHuman Erythropoietin R/Fc Chimera, CF …; experiment: as above
[12] = biological target: T5, rHuman Notch-1/Fc Chimera, CF (R&D …); experiment: as above
[13] = biological target: T6, rHuman P-Cadherin/Fc Chimera, CF (R&D …); experiment: as above
[14] = biological target: T7, rHuman HGF R/c-MET/Fc Chimera, CF (R&D …); experiment: as above
[15] = biological target: T1, rHuman CD44/Fc Chimera, CF (R&D Systems …); experiment: MSD Multispot ECL, antigen spotted on plate, Fab in solution; blank spot of the row 316
[16] = biological target: T2, rHuman EGF R/Fc Chimera, CF (R&D …); experiment: as above
[17] = biological target: T3, Recombinant Human DLL4 (R&D Systems …); experiment: as above
[18] = biological target: T4, rHuman Erythropoietin R/Fc Chimera, CF …; experiment: as above
[19] = biological target: T5, rHuman Notch-1/Fc Chimera, CF (R&D …); experiment: as above
[20] = biological target: T6, rHuman P-Cadherin/Fc Chimera, CF (R&D …); experiment: as above
[21] = biological target: T7, rHuman HGF R/c-MET/Fc Chimera, CF (R&D …); experiment: as above
[22] = biological target: T2, rHuman EGF R/Fc Chimera, CF (R&D …); experiment: MSD Multispot ECL, antigen spotted on plate, Fab in solution; blank spot of the row 297
[23] = biological target: T3, Recombinant Human DLL4 (R&D Systems …); experiment: as above
[24] = biological target: T4, rHuman Erythropoietin R/Fc Chimera, CF …; experiment: as above
[25] = biological target: T5, rHuman Notch-1/Fc Chimera, CF (R&D …); experiment: as above
[26] = biological target: T6, rHuman P-Cadherin/Fc Chimera, CF (R&D …); experiment: as above
[27] = biological target: T7, rHuman HGF R/c-MET/Fc Chimera, CF (R&D …); experiment: as above
[28] = biological target: T2, rHuman EGF R/Fc Chimera, CF (R&D …); experiment: MSD Multispot ECL, antigen spotted on plate, Fab in solution; blank spot of the row 300
[29] = biological target: T4, rHuman Erythropoietin R/Fc Chimera, CF …; experiment: as above
[30] = biological target: T5, rHuman Notch-1/Fc Chimera, CF (R&D …); experiment: as above
[31] = biological target: T6, rHuman P-Cadherin/Fc Chimera, CF (R&D …); experiment: as above
[32] = biological target: T7, rHuman HGF R/c-MET/Fc Chimera, CF (R&D …); experiment: as above

ECL signal [15]: 497
ECL signal [16]: 839
ECL signal [17]: 35400
ECL signal [18]: 586
ECL signal [19]: 432
ECL signal [20]: 317
ECL signal [21]: 1040
B3: Fab VH5-51_IGHD5-18*01>3_IGHJ4*01 G100K/G104T S28A & V3-4_IGLJ1*01 (Fab, V domains shown)
VH: EVQLVQSGAEVKKPGESLKISCKGSGYAFTSYWIGWVRQMPGKGLEWMGIIYPGDSDTRYSPSFQGQVTISADKSISTAYLQWSSLKASDTAMYYCARRKYSYTYDYFDYWGQGTLVTVSS
VL: QTVVTQEPSFSVSPGGTVTLTCGLSSGSVSTSYYPSWYQQTPGQAPRTLIYSTNTRSSGVPDRFSGSILGNKAALTITGAQADDESDYYCVLYMGSGISYVFGTGTKVTVL
notes: Fab made in E. coli; VH cloned into Plasmid A (CH1, His6 and Flag tags), lambda VL into Plasmid E (lambda CL); also called KT S28A

ECL signal [28]: 883
ECL signal [29]: 505
ECL signal [30]: 564
ECL signal [31]: 349
ECL signal [32]: 1080
B5: Fab VH5-51_IGHD5-18*01>3_IGHJ4*01 G100K/G104T I34A & V3-4_IGLJ1*01 (Fab, V domains shown)
VH: EVQLVQSGAEVKKPGESLKISCKGSGYSFTSYWAGWVRQMPGKGLEWMGIIYPGDSDTRYSPSFQGQVTISADKSISTAYLQWSSLKASDTAMYYCARRKYSYTYDYFDYWGQGTLVTVSS
VL: QTVVTQEPSFSVSPGGTVTLTCGLSSGSVSTSYYPSWYQQTPGQAPRTLIYSTNTRSSGVPDRFSGSILGNKAALTITGAQADDESDYYCVLYMGSGISYVFGTGTKVTVL
notes: Fab made in E. coli; VH cloned into Plasmid A (CH1, His6 and Flag tags), lambda VL into Plasmid E (lambda CL); also called KT I34A

Continued, binder first:

B1: Fab VH5-51_IGHD5-18*01>3_IGHJ4*01 G100K/G104T F29A & V3-4_IGLJ1*01 (Fab, V domains shown)
VH: EVQLVQSGAEVKKPGESLKISCKGSGYSATSYWIGWVRQMPGKGLEWMGIIYPGDSDTRYSPSFQGQVTISADKSISTAYLQWSSLKASDTAMYYCARRKYSYTYDYFDYWGQGTLVTVSS
VL: QTVVTQEPSFSVSPGGTVTLTCGLSSGSVSTSYYPSWYQQTPGQAPRTLIYSTNTRSSGVPDRFSGSILGNKAALTITGAQADDESDYYCVLYMGSGISYVFGTGTKVTVL
notes: Fab made in E. coli; VH cloned into Plasmid A (CH1, His6 and Flag tags), lambda VL into Plasmid E (lambda CL); also called KT F29A
ECL signal [1]: 621
ECL signal [2]: 887
ECL signal [3]: 22900
ECL signal [4]: 586
ECL signal [5]: 601
ECL signal [6]: 502
ECL signal [7]: 985

B2: Fab VH5-51_IGHD5-18*01>3_IGHJ4*01 G100K/G104T T30A & V3-4_IGLJ1*01 (Fab, V domains shown)
VH: EVQLVQSGAEVKKPGESLKISCKGSGYSFASYWIGWVRQMPGKGLEWMGIIYPGDSDTRYSPSFQGQVTISADKSISTAYLQWSSLKASDTAMYYCARRKYSYTYDYFDYWGQGTLVTVSS
VL: QTVVTQEPSFSVSPGGTVTLTCGLSSGSVSTSYYPSWYQQTPGQAPRTLIYSTNTRSSGVPDRFSGSILGNKAALTITGAQADDESDYYCVLYMGSGISYVFGTGTKVTVL
notes: Fab made in E. coli; VH cloned into Plasmid A (CH1, His6 and Flag tags), lambda VL into Plasmid E (lambda CL); also called KT T30A
ECL signal [8]: 698
ECL signal [9]: 853
ECL signal [10]: 24300
ECL signal [11]: 553
ECL signal [12]: 539
ECL signal [13]: 438
ECL signal [14]: 868

B4: Fab VH5-51_IGHD5-18*01>3_IGHJ4*01 G100K/G104T G35A & V3-4_IGLJ1*01 (Fab, V domains shown)
VH: EVQLVQSGAEVKKPGESLKISCKGSGYSFTSYWIAWVRQMPGKGLEWMGIIYPGDSDTRYSPSFQGQVTISADKSISTAYLQWSSLKASDTAMYYCARRKYSYTYDYFDYWGQGTLVTVSS
VL: QTVVTQEPSFSVSPGGTVTLTCGLSSGSVSTSYYPSWYQQTPGQAPRTLIYSTNTRSSGVPDRFSGSILGNKAALTITGAQADDESDYYCVLYMGSGISYVFGTGTKVTVL
notes: Fab made in E. coli; VH cloned into Plasmid A (CH1, His6 and Flag tags), lambda VL into Plasmid E (lambda CL); also called KT G35A
ECL signal [22]: 760
ECL signal [23]: 53600
ECL signal [24]: 506
ECL signal [25]: 400
ECL signal [26]: 305
ECL signal [27]: 939

Reference: patent US20120316071A1 (published 2012)
